Reference: paper PMC7615804, “Molecular mechanism of dynein-dynactin complex assembly by LIS1” (Science (New York, N.Y.), 2024)
Residue numbers refer to the chain shown, from its start. Numbers in names are those of the source.

T1: mouse JIP3 186-505_L383A/E386A (mouse, UniProt Q9ESN9-5 186-505, L383A | E386A)
T1 construct: JIP3, mouse cDNA, isoform 3a, UniProt Q9ESN9-5, residues 186-505 with L383A and E386A; also called Spindly motif mutant (L383A/E386A); source: SoluBL21 E. coli, purified (Ni-NTA, TEV, Strep-Tactin, SEC); not shown: His6, N-terminal, cleaved; MBP, N-terminal, cleaved
T1 sequence (looked up): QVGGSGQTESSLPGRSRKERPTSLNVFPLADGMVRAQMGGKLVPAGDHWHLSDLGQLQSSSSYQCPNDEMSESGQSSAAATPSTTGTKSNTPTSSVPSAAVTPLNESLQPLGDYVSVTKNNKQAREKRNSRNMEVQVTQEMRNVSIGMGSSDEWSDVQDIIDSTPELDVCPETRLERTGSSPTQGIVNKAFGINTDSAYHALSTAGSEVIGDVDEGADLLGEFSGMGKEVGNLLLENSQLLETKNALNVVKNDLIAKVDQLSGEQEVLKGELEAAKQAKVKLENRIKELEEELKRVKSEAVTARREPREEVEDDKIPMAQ

T2: mouse JIP3^185-505 (JIP3 residues 186-505) (mouse, UniProt Q9ESN9-5 186-505)
T2 construct: 2CT vector; also called JIP3 fragment containing the Spindly motif and LZII; JIP3 186-505; source: SoluBL21 E. coli, purified (Ni-NTA, TEV, Strep-Tactin, SEC); not shown: His6, N-terminal, cleaved; MBP, N-terminal, cleaved
T2 sequence (looked up): T1 sequence (looked up) with A198L, A201E

T3: LIS1 (full length human) (human, UniProt P43034 1-410)
T3 construct: LIS1, human, full length, UniProt P43034 (printed for the AlphaFold2 prediction); A version with an additional C-terminal SNAPf tag also exists; also called wild-type LIS1; source: Sf9, purified (IgG Sepharose, TEV, SEC); not shown: ZZ, N-terminal, cleaved
T3 sequence (looked up): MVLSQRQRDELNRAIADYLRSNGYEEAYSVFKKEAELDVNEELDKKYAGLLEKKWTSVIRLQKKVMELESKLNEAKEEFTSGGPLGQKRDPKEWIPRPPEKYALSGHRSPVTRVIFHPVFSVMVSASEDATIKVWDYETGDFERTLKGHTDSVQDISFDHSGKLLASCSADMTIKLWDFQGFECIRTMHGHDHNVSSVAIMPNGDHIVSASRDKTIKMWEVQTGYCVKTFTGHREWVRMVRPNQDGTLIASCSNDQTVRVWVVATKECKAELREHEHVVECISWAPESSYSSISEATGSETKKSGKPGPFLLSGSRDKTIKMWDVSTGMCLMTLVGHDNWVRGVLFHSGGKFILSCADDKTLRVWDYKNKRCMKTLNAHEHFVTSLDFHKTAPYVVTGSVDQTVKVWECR

B1: MBP-DIC-N (dynein intermediate chain 1-76) (domain or fragment, human, UniProt Q13409 1-76, looked up)
chain: MSDKSELKAELERKKQRLAQIREEKKRKEEERKKKETDQKKEAVAPVQEESDLEKKRREAEALLQSMGLTPESPIV
notes: dynein intermediate chain, residues 1-76; UniProt Q13409 is printed for DIC in the AlphaFold2 predictions; 2CT vector; the general protocol includes a TEV step, but this construct is named and used as MBP-DIC-N on amylose resin; also called DIC-N construct; source: SoluBL21 E. coli, purified; not shown: MBP, N-terminal, kept
B2: human Arf6 (12-175_Q67L) (domain or fragment, UniProt P62330 12-175, looked up)
chain: KEMRILMLGLDAAGKTTILYKLKLGQSVTTIPTVGFNVETVTYKNVKFNVWDVGGLDKIRPLWRHYYTGTQGLIFVVDCADRDRIDEARQELHRIINDREMRDAIILIFANKQDLPDAMKPHEIQEKLGLTRIRDRNWYVQPSCATSGDGLYEGLTWLTSNYKS
notes: Arf6, human, residues 12-175 with Q67L; pGEX-6P-1 vector: N-terminal GST, Prescission site, C-terminal 6xHis; source: SoluBL21 E. coli, purified (Ni-NTA, glutathione resin, SEC)
B3: LIS1-N (residues 1-90) (domain or fragment, human, UniProt P43034 1-90, looked up)
chain: MVLSQRQRDELNRAIADYLRSNGYEEAYSVFKKEAELDVNEELDKKYAGLLEKKWTSVIRLQKKVMELESKLNEAKEEFTSGGPLGQKRD
notes: LIS1, human, residues 1-90 (LisH domain and coiled coil); source: Sf9, purified (IgG Sepharose, TEV, SEC); not shown: ZZ, N-terminal, cleaved
B4: JIP3^1-560 (domain or fragment, human, UniProt Q9UPT6-1 1-560, looked up)
chain: MMEIQMDEGGGVVVYQDDYCSGSVMSERVSGLAGSIYREFERLIHCYDEEVVKELMPLVVNVLENLDSVLSENQEHEVELELLREDNEQLLTQYEREKALRRQAEEKFIEFEDALEQEKKELQIQVEHYEFQTRQLELKAKNYADQISRLEERESEMKKEYNALHQRHTEMIQTYVEHIERSKMQQVGGNSQTESSLPGRRKERPTSLNVFPLADGTVRAQIGGKLVPAGDHWHLSDLGQLQSSSSYQCPQDEMSESGQSSAAATPSTTGTKSNTPTSSVPSAAVTPLNESLQPLGDYGVGSKNSKRAREKRDSRNMEVQVTQEMRNVSIGMGSSDEWSDVQDIIDSTPELDMCPETRLDRTGSSPTQGIVNKAFGINTDSLYHELSTAGSEVIGDVDEGADLLGEFSVRDDFFGMGKEVGNLLLENSQLLETKNALNVVKNDLIAKVDQLSGEQEVLRGELEAAKQAKVKLENRIKELEEELKRVKSEAIIARREPKEEAEDVSSYLCTESDKIPMAQRRRFTRVEMARVLMERNQYKERLMELQEAVRWTEMIRASRE
notes: JIP3, human, UniProt Q9UPT6-1, residues 1-560, codon optimised for Sf9; The bacterial 2CT version would carry a C-terminal Strep-tag II; source: Sf9, purified (IgG Sepharose, TEV, SEC); not shown: His6, N-terminal, cleaved; ZZ, N-terminal, cleaved
B5: GCN4-WD40-SNAP (other, human)
chain: GSGSVKQLEDKVEELLSKNAHLENEVARLKKLVSGGPLGQKRDPKEWIPRPPEKYALSGHRSPVTRVIFHPVFSVMVSASEDATIKVWDYETGDFERTLKGHTDSVQDISFDHSGKLLASCSADMTIKLWDFQGFECIRTMHGHDHNVSSVAIMPNGDHIVSASRDKTIKMWEVQTGYCVKTFTGHREWVRMVRPNQDGTLIASCSNDQTVRVWVVATKECKAELREHEHVVECISWAPESSYSSISEATGSETKKSGKPGPFLLSGSRDKTIKMWDVSTGMCLMTLVGHDNWVRGVLFHSGGKFILSCADDKTLRVWDYKNKRCMKTLNAHEHFVTSLDFHKTAPYVVTGSVDQTVKVWECR
notes: LIS1, human, residues 81-410; source: Sf9, purified (IgG Sepharose, TEV, SEC); not shown: ZZ, N-terminal, cleaved; SNAPf, C-terminal, kept
B6: LIS1^mut (natural protein, human, UniProt P43034 1-410, looked up)
chain: MVASQEARDELNRAIADYLRSNGYEEAYSVFKKEAELDVNEELDKEYAGLLEEEWAAVAELAEEVMELRSKLNEAKEEFTSGGPLGQKRDPKEWIPRPPEKYALSGHRSPVTRVIFHPVFSVMVSASEDATIKVWDYETGDFERTLKGHTDSVQDISFDHSGKLLASCSADMTIKLWDFQGFECIRTMHGHDHNVSSVAIMPNGDHIVSASRDKTIKMWEVQTGYCVKTFTGHREWVRMVRPNQDGTLIASCSNDQTVRVWVVATKECKAELREHEHVVECISWAPESSYSSISEATGSETKKSGKPGPFLLSGSRDKTIKMWDVSTGMCLMTLVGHDNWVRGVLFHSGGKFILSCADDKTLRVWDYKNKRCMKTLNAHEHFVTSLDFHKTAPYVVTGSVDQTVKVWECR
notes: The last substitution is printed as E6 9R and read as E69R; source: Sf9, purified (IgG Sepharose, TEV, SEC); not shown: ZZ, N-terminal, cleaved
B7: GST-Psc-DCTN1(residues 350-547)-GFP-6xHis (domain or fragment, human (from the printed UniProt entry), UniProt Q14203-1 350-547, looked up)
chain: GSDGAASSYQLKQLEEQNARLKDALVRMRDLSSSEKQEHVKLQKLMEKKNQELEVVRQQRERLQEELSQAESTIDELKEQVDAALGAEEMVEMLTDRNLNLEEKVRELRETVGDLEAMNEMNDELQENARETELELREQLDMAGARVREAQKRVEAAQETVADYQQTIKKYRQLTAHLQDVNRELTNQQEASVERQQQ
notes: DCTN1/p150glued, UniProt Q14203-1, residues 350-547 (CC1B fragment); also called CC1B; p150-CC1B; source: SoluBL21 E. coli, purified (Ni-NTA, glutathione resin, SEC)

Columns and labels:
[1] = biological target: T4, GST-Psc-DCTN1(residues 214-547)-GFP-6xHis (human (from the printed UniProt entry), UniProt Q14203-1 214-547); assay: pull-down; GST pull-down on glutathione resin with GST-CC1A/B or CC1B as bait; LIS1, LIS1-N or MBP-DIC-N as prey; GST-PD buffer (50 mM HEPES pH 7.5, 100 mM KCl, 1 mM MgCl2, 1 mM DTT), room temperature; Coomassie-stained SDS-PAGE; conditions: both partners purified
T4 construct: DCTN1/p150glued, UniProt Q14203-1, residues 214-547 (CC1 fragment: CC1A and CC1B); also called GST-CC1A/B; CC1A/B; source: SoluBL21 E. coli, purified (Ni-NTA, glutathione resin, SEC); not shown: GST, N-terminal, kept

[2] = biological target: T1, mouse JIP3 186-505_L383A/E386A; assay: pull-down; pull-downs with mouse JIP3 186-505 constructs, Arf6 and the recombinant pointed end complex (Fig. S3E); purified recombinant proteins; which protein was held on the resin is not told in the text shown; conditions: both partners purified
[3] = biological target: T2, mouse JIP3^185-505 (JIP3 residues …); assay: as above; conditions: both partners purified
[4] = biological target: B7; assay: pull-down; GST pull-down on glutathione resin with GST-CC1A/B or CC1B as bait; LIS1, LIS1-N or MBP-DIC-N as prey; GST-PD buffer (50 mM HEPES pH 7.5, 100 mM KCl, 1 mM MgCl2, 1 mM DTT), room temperature; Coomassie-stained SDS-PAGE; conditions: both partners purified
[5] = biological target: T5, dynactin pointed end complex (ZZ-TEV-Arp11, p62, p25, p27) (human, UniProt Q9NZ32 1-417; Q9UJW0-1 1-460; Q9BTE1 1-182; O00399 1-190); assay: SEC; pointed end complex and JIP3^1-560 (or its Spindly mutant) mixed 1:1 at 10 μM final in GF150 buffer, 30 min at 4°C, Superose 6 Increase 3.2/300; conditions: both partners purified
T5 construct: Arp11, human, subunit of the dynactin pointed end complex; p62, human, isoform A, UniProt Q9UJW0-1; p25, human, subunit of the dynactin pointed end complex; p27, human, subunit of the dynactin pointed end complex; source: pAceBac1 vector; copies: + + +
T5 sequence (Q9NZ32 whole entry, chain 1 of 4, canonical isoform): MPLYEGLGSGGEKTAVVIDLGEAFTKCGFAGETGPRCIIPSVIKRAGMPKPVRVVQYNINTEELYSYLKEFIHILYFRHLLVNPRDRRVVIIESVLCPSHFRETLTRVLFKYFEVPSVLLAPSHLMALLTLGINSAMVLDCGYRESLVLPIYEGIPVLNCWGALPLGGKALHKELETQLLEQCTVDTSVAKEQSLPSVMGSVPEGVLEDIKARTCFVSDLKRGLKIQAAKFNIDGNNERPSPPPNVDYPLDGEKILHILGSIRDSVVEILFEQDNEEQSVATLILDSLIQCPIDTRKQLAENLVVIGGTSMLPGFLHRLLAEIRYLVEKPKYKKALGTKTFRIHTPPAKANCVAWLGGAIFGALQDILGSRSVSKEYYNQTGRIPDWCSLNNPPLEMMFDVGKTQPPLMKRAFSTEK
T5 sequence (Q9UJW0 whole entry, chain 2 of 4, canonical isoform): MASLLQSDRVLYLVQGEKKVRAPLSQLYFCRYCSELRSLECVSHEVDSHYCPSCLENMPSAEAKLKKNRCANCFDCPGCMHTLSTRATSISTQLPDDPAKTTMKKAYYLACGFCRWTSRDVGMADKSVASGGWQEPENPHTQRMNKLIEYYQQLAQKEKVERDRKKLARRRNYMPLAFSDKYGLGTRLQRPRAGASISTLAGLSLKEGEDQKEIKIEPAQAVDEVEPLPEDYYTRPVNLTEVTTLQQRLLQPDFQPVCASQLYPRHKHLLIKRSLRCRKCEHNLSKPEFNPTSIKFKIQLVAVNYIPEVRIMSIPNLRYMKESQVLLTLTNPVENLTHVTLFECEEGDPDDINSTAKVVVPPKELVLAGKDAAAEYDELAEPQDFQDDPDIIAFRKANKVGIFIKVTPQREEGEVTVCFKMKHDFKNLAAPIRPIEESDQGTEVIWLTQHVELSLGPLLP
T5 sequence (Q9BTE1 whole entry, chain 3 of 4, canonical isoform): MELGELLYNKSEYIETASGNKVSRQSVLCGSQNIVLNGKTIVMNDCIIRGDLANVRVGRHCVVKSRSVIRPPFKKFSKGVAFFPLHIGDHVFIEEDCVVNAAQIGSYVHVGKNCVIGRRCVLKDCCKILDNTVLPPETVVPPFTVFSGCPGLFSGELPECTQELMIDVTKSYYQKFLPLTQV
T5 sequence (O00399 whole entry, chain 4 of 4, canonical isoform): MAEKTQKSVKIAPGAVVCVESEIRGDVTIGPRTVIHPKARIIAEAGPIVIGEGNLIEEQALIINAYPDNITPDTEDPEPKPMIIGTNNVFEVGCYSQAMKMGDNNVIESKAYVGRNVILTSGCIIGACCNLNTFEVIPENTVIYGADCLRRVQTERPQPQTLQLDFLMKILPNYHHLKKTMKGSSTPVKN

[6] = biological target: the molecule itself; assay: SEC-MALS; 70 μL at 1 mg/mL, GF150 buffer, Superdex 200 5/150
LIS1 (full length human) = biological target: T3, LIS1 (full length human); assay: pull-down; GST pull-down on glutathione resin with GST-CC1A/B or CC1B as bait; LIS1, LIS1-N or MBP-DIC-N as prey; GST-PD buffer (50 mM HEPES pH 7.5, 100 mM KCl, 1 mM MgCl2, 1 mM DTT), room temperature; Coomassie-stained SDS-PAGE; conditions: both partners purified

Binder: B1
binding result [1]: binds

Binder: B2
binding result [2]: binds | binding result [3]: binds

Binder: B3
binding result [4]: binds

Binder: B4
binding result [5]: binds

Binder: B5
stoichiometry N [6]: 2

Binder: B6
stoichiometry N [6]: 2

Binder: B7
binding result (LIS1 (full length human)): binds
